Reference: patent US11407811B2, “Fusion protein, preparation method therefor and use thereof” (JIANGSU RONGTAI BIOTECH CO., LTD., priority 2017, dated 2022)

How the values were obtained:
[1] = tested on: adjuvant arthritis in rat; assay: Chronic inflammation of adjuvant arthritis in rat; type: in vivo; set-up: key to Clinical score Whole body: sum of hind/fore foot, ear, nose, tail scores; full score 8; conditions: for Clinical score Whole body: full score 8; for Foot swelling degree Left: left hind foot (primary inflammation); for Clinical score Arthritis index: maximum score 16; for Foot swelling degree Right: right foot (secondary inflammation)
Description: 80 SPF SD rats were randomly divided into 8 groups. Rats in each group were lightly anesthetized with ether. Then, 0.1 mL of complete Freund's adjuvant containing inactivated Mycobacterium tuberculosis was injected subcutaneously into the left hind foot of the rats. Primary arthritis occurred in the left hind foot of the rat, and at about 13 days post-modeling, secondary arthritis occurred in the right hind foot. A blank control group was injected with an equal volume of physiological saline. The drug was administered 13 days after modeling. A methotrexate group was administered by injection every 5 days for 15 days, 4 times in total; the fusion protein I, protein II, protein III, protein IV, and protein V at high, medium and low doses (128 mg/kg, 32 mg/kg, 8 mg/kg) were administered by injection every 5 days for 15 days.
Using a foot volume measuring method, a marker was made with a fat-soluble marker at the left and right posterior ankle joint of each rat, and the left and right hind feet of the animal were respectively immersed in the volume measuring device. The immersion depth was bounded by the marker, and the reading value at the scale pipette of the device was the initial volume of the animal's left and right hind feet.
The day of modeling was considered as the 0th day and recorded as d0. The volume of the left hind foot (modeling foot) was measured from the first day d1 after modeling every 2 days. When the swelling occurred (i.e., secondary arthritis occurred) at the contralateral non-inflammatory foot (right hind foot), the administration was started. The volume of the left and right hind feet was measured every 2 days, and the degree of primary and secondary toe swelling was determined, which was calculated as follows:
Primary toe swelling (mL)=left hind foot volume on the day of measurement-initial volume of left hind foot
Secondary toe swelling (mL)=right hind foot volume on the day of measurement-initial volume of right hind foot 2. Clinical score
Systemic score: the systemic score was taken every 2 days after the onset of secondary inflammation.
Hind foot: no swelling=0 score, one hind foot swelling=1 score, two hind feet swelling=2 scores;
Forefoot: no swelling=0 score, one forefoot swelling=1 score, two forefeet swelling=2 scores;
Ear: no redness and nodules=0 score, redness or nodules in one ear=1 score, redness and nodules in both ears=2 scores;
Nose: no swelling=0 score, obvious swelling=1 score;
Tail: no nodules=0 score, with nodules=1 score; full score was 8 scores.
Arthritis index score: the arthritis index score was performed every 2 days after the onset of secondary inflammation.
The initial body weight of each group of rats was weighed before modeling. The body weight was measured every 2 days from d1 after modeling, from which the initial body weight was subtracted to obtain the weight gain of each group of rats.

[2] = tested on: xylene-induced ear swelling in mice; assay: Xylene-induced ear swelling in mice; type: in vivo; conditions: for Swelling degree / PI: injection; for Swelling degree: 2 h after xylene, mice; for PI: ear swelling vs control
Description: 80 Kunming mice were divided into 8 groups with 10 mice for each group and numbered. A physiological saline group was used as a blank control group, an aspirin group (200 mg/kg) was used as a positive control group, and fusion protein I, protein II, protein III, protein IV and protein V at high, medium and low doses (128, 32, 8 mg/kg) were used as experimental groups. Mice were administered once by injection, while EDSM needed to be administered twice a day for 5 consecutive days. The blank control group was given an equal volume of physiological saline. After the fifth day, 0.05 mL of xylene was applied to both sides of the right ears of the mice to induce inflammation, and the left ears were not applied and were normal ears. After 2 h, the mice were sacrificed by dislocation, and the ears were cut along the auricle. Ear pieces were taken with a puncher and weighed, and the swelling degree and swelling rate were calculated. Swelling degree=right ear piece weight-left ear piece weight, swelling rate=(swelling degree/left ear piece weight)×100%.

[3] = tested on: human retinal vascular endothelial cell (HRCEC); assay: MTT assay, proliferation of human retinal vascular endothelial cell (HRCEC); type: cell-based; conditions: 48 hours
Description: The activity of the integrin blocker polypeptide to inhibit proliferation of human retinal vascular endothelial cells was examined by MTT assay. HRCEC cells were cultured in a 5% CO2 incubator at 37° C. to a density of 90% or more, and then collected by trypsinization. The cells were resuspended in the culture liquid and counted under a microscope. The cell concentration was adjusted to 3.0×10^4 cells/mL. The cell suspension was inoculated into a 96-well plate at 100 μL per well and cultured in a 5% CO2 incubator at 37° C. overnight. […] After the cells were fully adhered, each dilution was added to a 96-well plate at 100 μL per well, respectively. […] 20 μL of 5 mg/mL MTT was added to each well of a 96-well plate, and incubation was continued for 4 hours. The medium was aspirated and 100 μL of DMSO was added per well for dissolution. The absorbance was measured at 570 nm with a microplate reader with a reference wavelength of 630 nm, and the proliferation inhibition (PI) was calculated. The formula was as follows: […]
where Ntest is the OD value of the test group and Ncontrol is the OD value of the blank control group.
The test was repeated 5 times independently. The results obtained from the test were calculated as mean±SD, and statistical t-test was performed. P<0.05 was considered as significant difference, and P<0.01 was considered as extremely significant difference.

B1: Protein II: IgG2-Fc linked to antiangiogenesis polypeptide EDSM-Y via a flexible linker; SEQ ID NO: 17 (protein)
chain: ERKCCVECPPCPAPPVAGPSVFLFPPKPKDTLMISRTPEVTCVVVDVSHEDPEVQFNWYVDGVEVHNAKTKPREEQFNSTFRVVSVLTVVHQDWLNGKEYKCKVSNKGLPAPIEKTISKTKGQPREPQVYTLPPSREEMTKNQVSLTCLVKGFYPSDISVEWESNGQPENNYKTTPPMLDSDGSFFLYSKLTVDKSRWQQGNVFSCSVMHEALHNHYTQKSLSLSPGKGGGGSGGGGSGGGGSFQPVLHLVALNSPLSGGMRGIRGADFQCFQQARAVGLAGTFRAGGGGRGD
- Weight gain ([1]; 8 mg/kg): 44.96 ± 12.11 g
- Clinical score Whole body ([1]; 8 mg/kg): 2.23 ± 0.26
- Foot swelling degree Left ([1]; 8 mg/kg): 1.95 ± 0.12 mL
- Clinical score Arthritis index ([1]; 8 mg/kg): 6.92 ± 0.55
- Foot swelling degree Right ([1]; 8 mg/kg): 1.77 ± 0.54 mL
- Weight gain ([1]; 32 mg/kg): 48.10 ± 9.19 g
- Clinical score Whole body ([1]; 32 mg/kg): 1.81 ± 0.32
- Foot swelling degree Left ([1]; 32 mg/kg): 1.60 ± 0.19 mL
- Clinical score Arthritis index ([1]; 32 mg/kg): 5.69 ± 0.37
- Foot swelling degree Right ([1]; 32 mg/kg): 1.54 ± 0.33 mL
- Weight gain ([1]; 128 mg/kg): 50.83 ± 15.19 g
- Clinical score Whole body ([1]; 128 mg/kg): 1.54 ± 0.19
- Foot swelling degree Left ([1]; 128 mg/kg): 1.35 ± 0.14 mL
- Clinical score Arthritis index ([1]; 128 mg/kg): 4.17 ± 0.64
- Foot swelling degree Right ([1]; 128 mg/kg): 1.35 ± 0.73 mL
- therapeutic effect on primary arthritis (primary toe swelling degree) ([1]; high dose groups, compared with the model group): effective
- Swelling degree ([2]; 8 mg/kg): 6.21 ± 0.23 mg
- PI ([2]; 8 mg/kg): 6.62%
- Swelling degree ([2]; 32 mg/kg): 5.18 ± 0.89 mg
- PI ([2]; 32 mg/kg): 22.11%
- Swelling degree ([2]; 128 mg/kg): 3.87 ± 0.45 mg
- PI ([2]; 128 mg/kg): 41.80%
- inhibition of xylene-induced ear swelling ([2]; high doses): could significantly inhibit xylene-induced ear swelling
- A570 nm/A630 nm ([3]; 1 μg/mL): 1.1122 ± 0.0385
- PI ([3]; 1 μg/mL): 17.44%
- A570 nm/A630 nm ([3]; 2 μg/mL): 1.0002 ± 0.0405
- PI ([3]; 2 μg/mL): 25.75%
- A570 nm/A630 nm ([3]; 4 μg/mL): 0.9287 ± 0.0288
- PI ([3]; 4 μg/mL): 31.06%
- A570 nm/A630 nm ([3]; 8 μg/mL): 0.8999 ± 0.0320
- PI ([3]; 8 μg/mL): 33.20%
- A570 nm/A630 nm ([3]; 16 μg/mL): 0.8225 ± 0.0291
- PI ([3]; 16 μg/mL): 38.94%
- A570 nm/A630 nm ([3]; 32 μg/mL): 0.7348 ± 0.0277
- PI ([3]; 32 μg/mL): 45.45%
- A570 nm/A630 nm ([3]; 64 μg/mL): 0.5748 ± 0.0314
- PI ([3]; 64 μg/mL): 57.33%
- A570 nm/A630 nm ([3]; 128 μg/mL): 0.3628 ± 0.0282
- PI ([3]; 128 μg/mL): 73.07%
- A570 nm/A630 nm ([3]; 256 μg/mL): 0.1495 ± 0.0314
- PI ([3]; 256 μg/mL): 88.90%
